Assay results taken from patent US20170342126A1 (MAYO FOUNDATION FOR MEDICAL EDUCATION AND RESEARCH, published 2017).
Read-outs that look alike come from different tables or passages of the source. Each block holds one molecule with its values, some of them ahead of it.

Columns and labels:
[1] = target: purified HLA-DR molecule DRB1*1302 (human); test: radioligand inhibition, purified HLA-DR
[2] = target: purified HLA-DR molecule DRB5*0101 (human); test: radioligand inhibition, purified HLA-DR
HLA-DR DRB1*1302 (human) [3] = test: radioligand inhibition, purified HLA-DR
HLA-DR DRB1*0701 = HLA-DR DRB1*0701 (human); test: radioligand inhibition, purified HLA-DR
[4] = target: purified HLA-DR molecule DRB1*0901 (human); test: radioligand inhibition, purified HLA-DR
HLA-DR DRB5*0101 (human) = test: radioligand inhibition, purified HLA-DR
HLA-DR DRB1*0901 (human) = test: radioligand inhibition, purified HLA-DR
HLA-DR DRB1*1501 (human) = test: radioligand inhibition, purified HLA-DR
HLA-DR DRB1*0405 (human) = target: T1, HLA-DR DRB1*0405 (human); test: radioligand competition, purified HLA-DR; conditions: remark: other sources report otherwise
T1 chain 1: not shown
T1 chain 2: not shown

HLA-DR DRB1*0401 (human) [5] = target: T2, HLA-DR DRB1*0401 (human); test: radioligand competition, purified HLA-DR; conditions: remark: other sources report otherwise
T2 chain 1: not shown
T2 chain 2: not shown

HLA-DR DRB1*0101 (human) = target: T3, HLA-DR DRB1*0101 (human); test: radioligand competition, purified HLA-DR; conditions: remark: other sources report otherwise
T3 chain 1: not shown
T3 chain 2: not shown

[6] = target: at least four different HLA-DR variants (of 15 different purified HLA-DR molecules); test: radioligand inhibition, purified HLA-DR
HLA-DR DRB1*0802 (human) = target: T4, HLA-DR DRB1*0802 (human); test: radioligand inhibition, purified HLA-DR; conditions: remark: other sources report otherwise
T4 chain 1: not shown
T4 chain 2: not shown

HLA-DR DRB1*0404 (human) = target: T5, HLA-DR DRB1*0404 (human); test: radioligand competition, purified HLA-DR; conditions: remark: other sources report otherwise
T5 chain 1: not shown
T5 chain 2: not shown

HLA-DR DRB4*0101 (human) = target: T6, HLA-DR DRB4*0101 (human); test: radioligand inhibition, purified HLA-DR; conditions: remark: other sources report otherwise
T6 chain 1: not shown
T6 chain 2: not shown

HLA-DR DRB1*0401 (human) [7] = target: T2, HLA-DR DRB1*0401 (human); test: radioligand inhibition, purified HLA-DR; conditions: remark: other sources report otherwise
HLA-DR DRB1*1302 (human) [8] = target: T7, HLA-DR DRB1*1302 (human); test: radioligand inhibition, purified HLA-DR; conditions: remark: other sources report otherwise
T7 chain 1: not shown
T7 chain 2: not shown

IC50 [1]: 1920 nM | IC50 [2]: 2280 nM
Molecule: Peptide 9019.0126 (CEA.354)

IC50 (HLA-DR DRB1*1302 (human) [3]): 9960 nM | IC50 (HLA-DR DRB1*0701): 6340 nM
Molecule: Peptide 9019.0005, CEA.122

IC50 [4]: 1910 nM
Molecule: Peptide 9019.0118 (CEA.176)

IC50 (HLA-DR DRB1*1302 (human) [3]): 1920 nM | IC50 (HLA-DR DRB5*0101 (human)): 2280 nM
Molecule: Peptide 9019.0126, CEA.354

IC50 (HLA-DR DRB1*0901 (human)): 1910 nM
Molecule: Peptide 9019.0118, CEA.176

IC50 (HLA-DR DRB1*1501 (human)): 376 nM | IC50 (HLA-DR DRB1*1302 (human) [3]): 394 nM
Molecule: Peptide 9019.0115, CEA.126

IC50 (HLA-DR DRB1*1302 (human) [3]): 3490 nM
Molecule: Peptide 9019.0009, Cyclin D1.129

IC50 (HLA-DR DRB1*0405 (human)): 3170 nM | IC50 (HLA-DR DRB1*0401 (human) [5]): 95 nM
Molecule: KLCIYTDNSIRPEEL [Peptide 9019.0159]

IC50 (HLA-DR DRB1*0101 (human)): 139 nM
Molecule: CYGLGMEHLREVRAV [Peptide 9019.0044]

IC50 [6]: < 1000 nM
Molecule: AQTFVALCATDVKFI [Peptide 9019.0168, Cyclin D1.182]

IC50 (HLA-DR DRB1*0701): 6810 nM
Molecule: GTDMKLRLPASPETH [Peptide 9019.0027, Her2/neu.28]

IC50 (HLA-DR DRB1*0405 (human)): 1450 nM
Molecule: SDSVILNVLYGPDAP [Peptide 9019.0119]

IC50 (HLA-DR DRB1*0802 (human)): 95 nM | IC50 [6]: < 1000 nM
Molecule: HNQVRQVPLQRLRIV [Peptide 9019.0034, Her2/neu.88]

IC50 (HLA-DR DRB1*0404 (human)): 26 nM | IC50 (HLA-DR DRB1*0405 (human)): 1850 nM
Molecule: VCGIQNSVSANRSDP [Peptide 9019.0135]

IC50 (HLA-DR DRB4*0101 (human)): 6.3 nM
Molecule: GYVIGTQQATPGPAY [9019.0110]

IC50 (HLA-DR DRB1*0401 (human) [7]): 21 nM
Molecule: KELAVFREKVTEQHR [9019.0186]

IC50 (HLA-DR DRB1*0101 (human)): 71 nM
Molecule: TEILKGGVLIQRNPQ [Peptide 9019.0039]

IC50 (HLA-DR DRB1*1302 (human) [8]): 605 nM
Molecule: TTPVTGASPGGLREL [Peptide 9019.0037, Her2/neu.126]
